Experiments:
Test in all cases: purified protein
[1] = test system: O=[N+]([O-])c1cccc(O)c1; conditions: 200 μM NADH, 25 μM FAD, 50 mM phosphate pH 7.5
[2] = test system: Oc1ccc(Cl)cc1; conditions: 200 μM NADH, 25 μM FAD, 50 mM phosphate pH 7.5, text prints 8.7 ± 1.1
[3] = test system: Oc1ccccc1; conditions: 200 μM NADH, 25 μM FAD, 50 mM phosphate pH 7.5

## two-component 4-CP monooxygenase (H6-CphA1 and H6-CphA2) (Rhodococcus sp. (in: high G+C Gram-positive bacteria))
[1]
  Km: 63.2 ± 7.7 µM
[2]
  Km: 8.7 ± 1.2 µM
  kcat: 0.0103 ± 0.00067 s⁻¹
[3]
  Km: 9.6 ± 0.9 µM

Source: article PMC6205950, “4-Chlorophenol Oxidation Depends on the Activation of an AraC-Type Transcriptional Regulator, CphR, in Rhodococcus sp. Strain YH-5B” (Frontiers in Microbiology, 2018)
